The target in this assay is SARS COV-1 spike protein (SARS COV-1) (UniProt P59594). Briefly: cell-based or functional assay.

Sequence of soluble 80R scFv (VH): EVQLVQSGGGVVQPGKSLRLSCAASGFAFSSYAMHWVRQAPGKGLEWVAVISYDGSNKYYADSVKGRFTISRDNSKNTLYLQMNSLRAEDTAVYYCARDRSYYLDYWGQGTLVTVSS
Sequence of soluble 80R scFv (VL): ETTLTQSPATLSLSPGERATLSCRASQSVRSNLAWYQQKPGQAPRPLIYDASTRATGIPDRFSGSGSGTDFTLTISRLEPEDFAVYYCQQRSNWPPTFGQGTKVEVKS

soluble 80R scFv had an IC50, neutralization of SARS COV-1 by the soluble scFv of 7.43 nM.

Source of the values: patent publication US20240254203A1.
